Patent US20220411533A1 (Boehringer Ingelheim, published 2022)

T1: human Trop2 recombinantly expressed on HEK293 cells (full-length, C-terminal Myc-DDK-tag) (human, UniProt P09758 27-323)
T1 construct: UniProt P09758 is printed for human TROP2; also called trophoblast cell-surface antigen 2; not shown: C-terminal Myc-DDK-tag of the Origene construct #RC202519
T1 sequence: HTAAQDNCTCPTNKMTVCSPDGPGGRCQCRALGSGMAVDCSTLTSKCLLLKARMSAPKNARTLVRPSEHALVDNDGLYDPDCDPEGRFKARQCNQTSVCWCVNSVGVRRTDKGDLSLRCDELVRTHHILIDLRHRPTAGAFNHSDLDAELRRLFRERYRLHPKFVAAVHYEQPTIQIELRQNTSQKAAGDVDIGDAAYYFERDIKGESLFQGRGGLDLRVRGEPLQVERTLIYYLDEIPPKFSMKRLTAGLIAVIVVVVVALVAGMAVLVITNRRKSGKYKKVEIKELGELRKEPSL


molecular target: T1, human Trop2 recombinantly expressed on …; test: flow cytometry based Scatchard method on HEK293 cells expressing Trop2

Row | Binder | Kd [nM]
1 | Trop2#1 (antibody, V domains shown) VH: EVQLQQSGPELLKPGASVKISCKASGYTFTDYTMHWVKQSHGKSLEWIGGIYPNYGDTNYNEKFKDKATLTVDESSSTAYMELRSLTSEDSAVYYCSRKTVLLRLRYFDVWGTGTTVTVSS VL: DIQMTQSPASLSASVGETVTITCRASGNIHNYLAWYQQKQGKSPQLLVYNAITLADGVPSRFSGSGSGTQYSLKINSLQPEDFGSYYCQHFWSTPFTFGSGTKLEIK | 2.2
2 | Trop2#5 (antibody, V domains shown) VH: EVQLQQSGPDLVKPGASVKMSCKASGFIFTDYYMNWVKQSHGKSLEWIGYIYPNNGATAYNQKFKGKATLTVDKSSSTAYMELRSLTSEDSAVYYCARESDFYAMDYWGQGTSVTVSS VL: DVVMTQTPLSLPVSLGDQASISCRSSQSLVHSHGNIYLHWYLQKPGLSPKLLIFKVSNRFSGVPDRFSGSGSGTDFTLKISRVEAEDLGVYFCSQSTHVWTFGGGTKLEIK | 0.6
3 | Trop2#7 (antibody, V domains shown) VH: EVQLQQSGPELVKPGASVKMSCRASGYTFTSYAMHWVKQKPGQGLEWIGYINPYNGGTKYNEKFKGRATLTSDKSSSTAYMELSSLTSEDSAVYYCAREGIYYGAWFAYWGQGTLVTVSA VL: DIQMTQSSSSFSVSLGDRVTITCKASEDIYNRLAWFQQKPGNAPRLLISGATSLETGVPSRFRGSRSGKDYTLSITSLQTEDVATYYCQQYWSTWTFGGGTKLEIK | 0.4
